Experiment: IL-2 binding affinity of the separate receptor chains
Set-up: species or system human
Settings: read-out: Kd of the chain for IL-2; each chain expressed separately
Procedure: Monoclonal antibodies reactive with the Tac epitope were made available by Dr. Ellis Reinherz (1HT4; IgG2a Dana-Farber Cancer Center, Boston Mass.). IL-2 and anti-Tac ware radioiodinated using lactoperoxidase-glucose oxidase (Enzymobeads, Biorad, Richmond, Calif.) according to the manufacturer's instructions. The specific activity of anti-Tac was 5.3×10^4 CPM/pmole. […] Binding of both ligands to whole cells was performed, as described in Robb et al., Vol 154 J. Exp. Med., p. […] After 20-min incubation at 37° C., the tubes were centrifuged (8,500×g, 80s), the tips of the tubes containing the cell pellet were severed and the cell-bound and free radioactivity were determined by solid scintillation counting. The calculated values for the number of binding sites per cell were derived by Scatchard analysis of equilibrium binding data after subtraction of nonspecific binding determined in the presence of 150-fold molar excess of unlabeled ligand. […]
Particularly convincing in this regard is the finding that the chain present in limiting amounts dictates the number of high affinity receptors, and either α or β chains can function in this role. […] In contrast, YT cells express […] in excess, and high affinity receptors are detected only when the cells are induced to express β chains.

- Kd: 10 nM
B1: β chain: previously isolated 55,000 dalton IL-2 receptor protein bearing the Tac epitope (protein, UniProt P01589 22-272, looked up)
Interleukin-2 receptor …: ELCDDDPPEIPHATFKAMAYKEGTMLNCECKRGFRRIKSGSLYMLCTGNSSHSSWDNQCQCTSSATRNTTKQVTPQPEEQKERKTTEMQSPMQPVDQASLPGHCREPPPWENEATERIYHFVVGQMVYYQCVQGYRALHRGPAESVCKMTHGKTRWTQPQLICTGEMETSQFPGEEKPQASPEGRPESETSCLVTTTDFQIQTEMAATMETSIFTTEYQVAVAGCVFLLISVLLLSGLTWQRRQRKSRRTI
